Where two headings read alike, the source gives them in different places. Square brackets hold non-standard residues; d marks the D form. Ends that are not written are not given here. 1Nal = N[C@@H](Cc1cccc2ccccc12)C(=O)O; diphenylalanine = not defined here
How the values were obtained:
Details in all cases: modification not given
[1] = molecular target: T1, insulin-degrading enzyme (recombinant human IDE) (human), P14735
[2] = molecular target: T1, insulin-degrading enzyme (recombinant …); remark: listed apart in the source
[3] = molecular target: T1, insulin-degrading enzyme (recombinant …); remark: listed apart in the source
[4] = molecular target: T1, insulin-degrading enzyme (recombinant …); remark: listed apart in the source
[5] = molecular target: T1, insulin-degrading enzyme (recombinant …); remark: listed apart in the source
[6] = molecular target: T1, insulin-degrading enzyme (recombinant …); remark: listed apart in the source

In the case of FRY [3-fluorophenylalanine], the Ki [1] is reported as 7 µM.

[diphenylalanine]-Arg-Tyr (reading uncertain) [diphenylalanine] gave a Ki [2] greater than 500 µM.

[1Nal]-Arg-Tyr [1-naphthylalanine] showed a Ki [3] of 0.7 µM.

[2‑benzothiophenylalanine]-Arg-Tyr [2-benzothiophenylalanine] was tested, and the Ki [4] was 1.1 µM.

FRY [4-(tert-butyl)-phenylalanine] was tested, and the Ki [5] was 16 µM.

For FRY [4-fluorophenylalanine], the Ki [6] was 7 µM.

Reference: article PMC2866327, “Designed Inhibitors of Insulin-Degrading Enzyme Regulate the Catabolism and Activity of Insulin” (PLoS ONE, 2010)
